Data as given in paper doi:10.1101/2021.03.22.436447 (bioRxiv, 2021).

Target: T1, spectacled caiman hemoglobin beta-type chain (Caiman crocodilus (endogenous in red …, UniProt P02131 1-146))
T1 sequence (looked up): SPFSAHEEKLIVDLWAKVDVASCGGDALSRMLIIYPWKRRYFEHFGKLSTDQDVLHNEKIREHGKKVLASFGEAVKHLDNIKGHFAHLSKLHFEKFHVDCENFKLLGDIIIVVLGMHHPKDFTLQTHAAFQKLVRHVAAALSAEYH
Experiment: SEC

binding result: binds
B1: spectacled caiman hemoglobin alpha-type chain (natural protein)
chain: not shown
